Assay results taken from USRE47223 (Genentech, dated 2019).

T1: 5-domain TAT10772 (human)
T1 construct: Recombinant portion of the extracellular domain, expressed in CHO cells; also called 5-mucin domain
T1 chain: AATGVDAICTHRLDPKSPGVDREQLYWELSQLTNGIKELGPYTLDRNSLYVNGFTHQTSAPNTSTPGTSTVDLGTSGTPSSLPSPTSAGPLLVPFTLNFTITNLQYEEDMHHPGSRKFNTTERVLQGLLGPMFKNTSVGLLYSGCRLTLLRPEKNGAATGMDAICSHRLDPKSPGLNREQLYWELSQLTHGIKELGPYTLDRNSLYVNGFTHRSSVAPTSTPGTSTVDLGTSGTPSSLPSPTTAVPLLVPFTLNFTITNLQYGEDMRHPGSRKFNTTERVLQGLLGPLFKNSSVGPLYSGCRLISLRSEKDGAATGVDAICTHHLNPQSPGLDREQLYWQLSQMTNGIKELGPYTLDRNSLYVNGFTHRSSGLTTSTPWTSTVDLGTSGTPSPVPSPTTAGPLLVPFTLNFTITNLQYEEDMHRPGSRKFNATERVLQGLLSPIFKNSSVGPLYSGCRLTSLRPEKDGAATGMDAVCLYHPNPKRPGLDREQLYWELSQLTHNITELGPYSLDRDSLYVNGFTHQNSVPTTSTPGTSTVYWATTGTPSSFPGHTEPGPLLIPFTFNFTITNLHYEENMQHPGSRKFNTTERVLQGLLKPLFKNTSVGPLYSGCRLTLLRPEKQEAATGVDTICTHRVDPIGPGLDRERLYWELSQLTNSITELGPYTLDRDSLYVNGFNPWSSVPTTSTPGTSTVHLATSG

B1: 3A5v1 (SEQ ID NO: 198) (antibody, V domains shown)
VH: EVQLVESGGGLVQPGGSLRLSCAASGYSITNDYAWNWVRQAPGKGLEWVGYINYSGYTTYNPSLKSRFTISRDTSKNTLYLQMNSLRAEDTAVYYCARWASGLDYWGQGTLVTVSS
VL: DIQMTQSPSSLSASVGDRVTITCKASDLIHNWLAWYQQKPGKAPKLLIYGATSLETGVPSRFSGSGSGTDFTLTISSLQPEDFATYYCQQYWTTPFTFGQGTKVEIKR
notes: Humanized IgG
B2: 3A5v6 (SEQ ID NO: 203) (antibody, V domains shown)
VH: EVQLVESGGGLVQPGGSLRLSCAASGYSITNDYAWNWVRQAPGKGLEWVGYINYSGYTTYNPSLKSRFTISRDTSKNTFYLQMNSLRAEDTAVYYCARWDSGLTYWGQGTLVTVSS
VL: DIQMTQSPSSLSASVGDRVTITCKASDLIHNWLAWYQQKPGKAPKLLIYGATSLETGVPSRFSGSGSGTDFTLTISSLQPEDFATYYCQQYWTTPFTFGQGTKVEIKR
notes: Humanized IgG
B3: 3A5v4b.54 (SEQ ID NO:209) (antibody, V domains shown)
VH: EVQLVESGGGLVQPGGSLRLSCAASGYSITNDYAWNWVRQAPGKGLEWVGYINYAGYTTYNPSLKSRFTISRDTSKNTLYLQMNSLRAEDTAVYYCARWTSGLDYWGQGTLVTVSS
VL: DIQMTQSPSSLSASVGDRVTITCKASDLIHNWLAWYQQKPGKAPKLLIYGATSLETGVPSRFSGSGSGTDFTLTISSLQPEDFATYYCQQYWTTPFTFGQGTKVEIKR
B4: 3A5v4 (SEQ ID NO: 201) (antibody, V domains shown)
VH: EVQLVESGGGLVQPGGSLRLSCAASGYSITNDYAWNWVRQAPGKGLEWVGYINYSGYTTYNPSLKSRFTISRDTSKNTLYLQMNSLRAEDTAVYYCARWTSGLDYWGQGTLVTVSS
VL: DIQMTQSPSSLSASVGDRVTITCKASDLIHNWLAWYQQKPGKAPKLLIYGATSLETGVPSRFSGSGSGTDFTLTISSLQPEDFATYYCQQYWTTPFTFGQGTKVEIKR
notes: Humanized IgG
B5: 3A5.F-graft (SEQ ID NO: 13), IgG (antibody, V domains shown)
VH: EVQLVESGGGLVQPGGSLRLSCAASGYSITNDYAWNWVRQAPGKGLEWVGYINYSGYTTYNPSLKSRFTISRDNSKNTFYLQMNSLRAEDTAVYYCARWDGGLTYWGQGTLVTVSS
VL: DIQMTQSPSSLSASVGDRVTITCKASDLIHNWLAWYQQKPGKAPKLLIYGATSLETGVPSRFSGSGSGTDFTLTISSLQPEDFATYYCQQYWTTPFTFGQGTKVEIKR
notes: IgG
B6: 3A5v1b 52 (SEQ ID NO: 206) (antibody, V domains shown)
VH: EVQLVESGGGLVQPGGSLRLSCAASGYSITNDYAWNWVRQAPGKGLEWVGYISYSGYTTYNPSLKSRFTISRDTSKNTLYLQMNSLRAEDTAVYYCARWASGLDYWGQGTLVTVSS
VL: DIQMTQSPSSLSASVGDRVTITCKASDLIHNWLAWYQQKPGKAPKLLIYGATSLETGVPSRFSGSGSGTDFTLTISSLQPEDFATYYCQQYWTTPFTFGQGTKVEIKR
notes: Humanized IgG, 3A5.v1 with the CDR-H2 glycosylation site removed at position 52
B7: 3A5v4b 52 (SEQ ID NO: 208) (antibody, V domains shown)
VH: EVQLVESGGGLVQPGGSLRLSCAASGYSITNDYAWNWVRQAPGKGLEWVGYISYSGYTTYNPSLKSRFTISRDTSKNTLYLQMNSLRAEDTAVYYCARWTSGLDYWGQGTLVTVSS
VL: DIQMTQSPSSLSASVGDRVTITCKASDLIHNWLAWYQQKPGKAPKLLIYGATSLETGVPSRFSGSGSGTDFTLTISSLQPEDFATYYCQQYWTTPFTFGQGTKVEIKR
notes: Humanized IgG, 3A5.v4 with the CDR-H2 glycosylation site removed at position 52
B8: 3A5v1b 54 (SEQ ID NO: 207) (antibody, V domains shown)
VH: EVQLVESGGGLVQPGGSLRLSCAASGYSITNDYAWNWVRQAPGKGLEWVGYINYAGYTTYNPSLKSRFTISRDTSKNTLYLQMNSLRAEDTAVYYCARWASGLDYWGQGTLVTVSS
VL: DIQMTQSPSSLSASVGDRVTITCKASDLIHNWLAWYQQKPGKAPKLLIYGATSLETGVPSRFSGSGSGTDFTLTISSLQPEDFATYYCQQYWTTPFTFGQGTKVEIKR
notes: Humanized IgG, 3A5.v1 with the CDR-H2 glycosylation site removed at position 54
B9: 3A5v3 (SEQ ID NO: 200) (antibody, V domains shown)
VH: EVQLVESGGGLVQPGGSLRLSCAASGYSITNDYAWNWVRQAPGKGLEWVGYINYSGYTTYNPSLKSRFTISRDTSKNTFYLQMNSLRAEDTAVYYCARWASGLSYWGQGTLVTVSS
VL: DIQMTQSPSSLSASVGDRVTITCKASDLIHNWLAWYQQKPGKAPKLLIYGATSLETGVPSRFSGSGSGTDFTLTISSLQPEDFATYYCQQYWTTPFTFGQGTKVEIKR
notes: Humanized IgG
B10: 3A5v5 (SEQ ID NO: 202) (antibody, V domains shown)
VH: EVQLVESGGGLVQPGGSLRLSCAASGYSITNDYAWNWVRQAPGKGLEWVGYINYSGYTTYNPSLKSRFTISRDTSKNTFYLQMNSLRAEDTAVYYCARWDAGLTYWGQGTLVTVSS
VL: DIQMTQSPSSLSASVGDRVTITCKASDLIHNWLAWYQQKPGKAPKLLIYGATSLETGVPSRFSGSGSGTDFTLTISSLQPEDFATYYCQQYWTTPFTFGQGTKVEIKR
notes: Humanized IgG
B11: 3A5v2 (SEQ ID NO: 199) (antibody, V domains shown)
VH: EVQLVESGGGLVQPGGSLRLSCAASGYSITNDYAWNWVRQAPGKGLEWVGYINYSGYTTYNPSLKSRFTISRDTSKNTFYLQMNSLRAEDTAVYYCARWASGLSHWGQGTLVTVSS
VL: DIQMTQSPSSLSASVGDRVTITCKASDLIHNWLAWYQQKPGKAPKLLIYGATSLETGVPSRFSGSGSGTDFTLTISSLQPEDFATYYCQQYWTTPFTFGQGTKVEIKR
notes: Humanized IgG
B12: 3A5v7 (SEQ ID NO: 204) (antibody, V domains shown)
VH: EVQLVESGGGLVQPGGSLRLSCAASGYSITNDYAWNWVRQAPGKGLEWVGYINYSGYTTYNPSLKSRFTISRDTSKNTLYLQMNSLRAEDTAVYYCARWKSGLDSWGQGTLVTVSS
VL: DIQMTQSPSSLSASVGDRVTITCKASDLIHNWLAWYQQKPGKAPKLLIYGATSLETGVPSRFSGSGSGTDFTLTISSLQPEDFATYYCQQYWTTPFTFGQGTKVEIKR
notes: Humanized IgG
B13: 3A5v8 (SEQ ID NO: 205) (antibody, V domains shown)
VH: EVQLVESGGGLVQPGGSLRLSCAASGYSITNDYAWNWVRQAPGKGLEWVGYINYSGYTTYNPSLKSRFTISRDTSKNTLYLQMNSLRAEDTAVYYCARWTSGLDSWGQGTLVTVSS
VL: DIQMTQSPSSLSASVGDRVTITCKASDLIHNWLAWYQQKPGKAPKLLIYGATSLETGVPSRFSGSGSGTDFTLTISSLQPEDFATYYCQQYWTTPFTFGQGTKVEIKR
notes: Humanized IgG
B14: 3A5.L-graft (SEQ ID NO: 12), IgG (antibody, V domains shown)
VH: EVQLVESGGGLVQPGGSLRLSCAASGYSITNDYAWNWVRQAPGKGLEWVGYINYSGYTTYNPSLKSRFTISRDNSKNTLYLQMNSLRAEDTAVYYCARWDGGLTYWGQGTLVTVSS
VL: DIQMTQSPSSLSASVGDRVTITCKASDLIHNWLAWYQQKPGKAPKLLIYGATSLETGVPSRFSGSGSGTDFTLTISSLQPEDFATYYCQQYWTTPFTFGQGTKVEIKR
notes: IgG
B15: murine 3A5 anti-TAT10772 antibody (antibody, V domains shown)
VH: DVQLQESGPGLVNPSQSLSLTCTVTGYSITNDYAWNWIRQFPGNKLEWMGYINYSGYTTYNPSLKSRISITRDTSKNQFFLHLNSVTTEDTATYYCARWDGGLTYWGQGTLVTVSA
VL: DIQMTQSSSFLSVSLGGRVTITCKASDLIHNWLAWYQQKPGNAPRLLISGATSLETGVPSRFSGSGSGNDYTLSIASLQTEDAATYYCQQYWTTPFTFGSGTKLEIK
notes: Murine monoclonal antibody from hybridoma; also called monoclonal antibody 3A5; monoclonal antibody 3A5.3
B16: 3A5 chimera (mu3A5-H; SEQ ID NO: 11) (antibody, V domains shown)
VH: DVQLQESGPGLVNPSQSLSLTCTVTGYSITNDYAWNWIRQFPGNKLEWMGYINYSGYTTYNPSLKSRISITRDTSKNQFFLHLNSVTTEDTATYYCARWDGGLTYWGQGTLVTVSA
VL: DIQMTQSPSSLSASVGDRVTITCKASDLIHNWLAWYQQKPGKAPKLLIYGATSLETGVPSRFSGSGSGTDFTLTISSLQPEDFATYYCQQYWTTPFTFGQGTKVEIKR
notes: IgG; also called chimeric 3A5; chimeric antibody

Tests used:
[1] = target: T2, CA125, human TAT10772 shed antigen (human, UniProt Q8WXI7 1-14451, limits assumed); assay: ELISA, IgG, CA125
T2 construct: domain: entire shed antigen; Bought reagent; also called CA125 polypeptide

[2] = target: T3, TAT10772 polypeptide (human); assay: ELISA on OVCAR-3 cells, IgG
T3 construct: Cell-surface TAT10772 on engineered PC3 cells (PC3/A5.3B2), OVCAR-3, OVCA-432, SK-OV-3 cells and tumor tissue; also called TAT10772 target polypeptide

[3] = target: T1, 5-domain TAT10772; assay: ELISA, IgG, 5′-domain TAT10772
[4] = target: T1, 5-domain TAT10772; assay: Biacore SPR, 5′-domain TAT10772 over immobilized IgG
[5] = target: T3, TAT10772 polypeptide; assay: Scatchard analysis, IgG
[6] = target: T3, TAT10772 polypeptide; assay: Scatchard analysis, IgG; form of TAT10772 not stated
[7] = target: T3, TAT10772 polypeptide; assay: Western blot, ELISA, FACS of TAT10772-expressing cells and/or immunohistochemistry

| Kd [1] [nM] | Kd [2] [nM] | Kd [3] [nM] | Kd [4] [nM] | koff [4] [s⁻¹] | kon [4] [M⁻¹ s⁻¹] | binding result [5] | Kd [6] [nM] | binding result [7] | Binder |
| --- | --- | --- | --- | --- | --- | --- | --- | --- | --- |
| 0.6 | 0.5 | 3 | 4.8 | 0.000178 | 36900 |  |  |  | B1 |
| 4.4 | 0.6 | 5.7 |  |  |  |  |  |  | B2 |
|  |  |  |  |  |  | binds |  |  | B3 |
| 0.3 | 0.8 | 2.4 |  |  |  |  |  |  | B4 |
| 51.4 | 0.6 | 90.3 | 10 | 0.000292 | 28500 |  |  |  | B5 |
|  |  |  |  |  |  |  | 0.47 |  | B6 |
|  |  |  |  |  |  |  | 0.46 |  | B7 |
|  |  |  |  |  |  |  | 0.37 |  | B8 |
| 0.5 | 0.2 | 1.6 | 3.6 | 0.00013 | 36200 |  |  |  | B9 |
| 8.2 | 0.6 | 10.2 |  |  |  |  |  |  | B10 |
| 0.8 | 0.7 | 3.7 | 3.6 | 0.000121 | 33400 |  |  |  | B11 |
| 1.2 | 0.8 | 3.3 |  |  |  |  |  |  | B12 |
| 0.4 | 0.5 | 2.6 | 2.3 | 0.000127 | 55100 |  |  |  | B13 |
|  | 7.1 |  |  |  |  |  |  |  | B14 |
|  |  |  |  |  |  |  |  | binds | B15 |
| 0.3 | 0.3 | 2.3 | 2.7 | 0.000121 | 44800 |  | 0.57 |  | B16 |
